# Measured values: IntAct's records for PubMed 16820411
# B1: Intercellular adhesion molecule 5 (Homo sapiens), Q9UMF0 (parent)
# chain: MPGPSPGLRRALLGLWAALGLGLFGLSAVSQEPFWADLQPRVAFVERGGSLWLNCSTNCPRPERGGLETSLRRNGTQRGLRWLARQLVDIREPETQPVCFFRCARRTLQARGLIRTFQRPDRVELMPLPPWQPVGENFTLSCRVPGAGPRASLTLTLLRGAQELIRRSFAGEPPRARGAVLTATVLARREDHGANFSCRAELDLRPHGLGLFENSSAPRELRTFSLSPDAPRLAAPRLLEVGSERPVSCTLDGLFPASEARVYLALGDQNLSPDVTLEGDAFVATATATASAEQEGARQLVCNVTLGGENRETRENVTIYSFPAPLLTLSEPSVSEGQMVTVTCAAGAQALVTLEGVPAAVPGQPAQLQLNATENDDRRSFFCDATLDVDGETLIKNRSAELRVLYAPRLDDSDCPRSWTWPEGPEQTLRCEARGNPEPSVHCARSDGGAVLALGLLGPVTRALSGTYRCKAANDQGEAVKDVTLTVEYAPALDSVGCPERITWLEGTEASLSCVAHGVPPPDVICVRSGELGAVIEGLLRVAREHAGTYRCEATNPRGSAAKNVAVTVEYGPRFEEPSCPSNWTWVEGSGRLFSCEVDGKPQPSVKCVGSGGATEGVLLPLAPPDPSPRAPRIPRVLAPGIYVCNATNRHGSVAKTVVVSAESPPEMDESTCPSHQTWLEGAEASALACAARGRPSPGVRCSREGIPWPEQQRVSREDAGTYHCVATNAHGTDSRTVTVGVEYRPVVAELAASPPGGVRPGGNFTLTCRAEAWPPAQISWRAPPGALNIGLSSNNSTLSVAGAMGSHGGEYECAATNAHGRHARRITVRVAGPWLWVAVGGAAGGAALLAAGAGLAFYVQSTACKKGEYNVQEAESSGEAVCLNGAGGGAGGAAGAEGGPEAAGGAAESPAEGEVFAIQLTSA
# Variants of: B1
# Details: with actn1_chick ACTN1, P05094
# Chain of actn1_chick ACTN1, P05094 (P05094 whole entry): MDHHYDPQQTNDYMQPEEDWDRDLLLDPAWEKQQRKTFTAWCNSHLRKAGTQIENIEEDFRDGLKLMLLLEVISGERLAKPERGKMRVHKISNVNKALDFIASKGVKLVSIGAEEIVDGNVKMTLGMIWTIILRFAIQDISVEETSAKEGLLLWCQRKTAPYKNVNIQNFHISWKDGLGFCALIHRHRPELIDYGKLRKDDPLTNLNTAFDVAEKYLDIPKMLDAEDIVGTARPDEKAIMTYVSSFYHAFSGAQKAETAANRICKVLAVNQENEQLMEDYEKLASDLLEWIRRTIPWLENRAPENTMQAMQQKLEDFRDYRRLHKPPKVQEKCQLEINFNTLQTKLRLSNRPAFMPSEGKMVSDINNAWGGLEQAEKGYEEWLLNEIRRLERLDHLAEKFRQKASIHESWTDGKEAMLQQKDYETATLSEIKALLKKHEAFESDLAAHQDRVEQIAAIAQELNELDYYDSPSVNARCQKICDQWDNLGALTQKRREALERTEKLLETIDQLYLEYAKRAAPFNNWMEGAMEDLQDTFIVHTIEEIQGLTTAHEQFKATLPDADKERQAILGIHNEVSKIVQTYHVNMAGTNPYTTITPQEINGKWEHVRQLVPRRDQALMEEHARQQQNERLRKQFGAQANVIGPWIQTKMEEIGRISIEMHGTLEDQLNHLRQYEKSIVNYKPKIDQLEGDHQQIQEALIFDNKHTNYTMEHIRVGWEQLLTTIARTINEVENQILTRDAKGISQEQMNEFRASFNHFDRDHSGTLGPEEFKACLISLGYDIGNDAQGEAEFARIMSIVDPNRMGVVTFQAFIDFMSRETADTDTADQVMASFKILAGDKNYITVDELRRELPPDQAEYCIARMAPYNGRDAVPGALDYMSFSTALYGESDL
row,Variant,effect of a mutation on the interaction
1,K866A;K867A,disrupting interaction
2,K866A,decreasing interaction
3,K867A,disrupting interaction
4,K867R,decreasing interaction
5,K866R,decreasing interaction
